Source: paper PMC8514580, “Insight into the interaction between the RNA helicase CGH-1 and EDC-3 and its implications” (Scientific Reports, 2021)
Entries after “also recorded” stand apart in the source; their conditions may differ.

Assays:
[1] = target: CAR-1 184-214 (Caenorhabditis elegans) (UniProt Q9XW17); test: ITC; settings: cited from earlier work
[2] = tested on: CGH-1_248–420 binding to GST-EDC-3_230–566; test: GST-pulldown competition, CGH-1_248–420 binding to GST-EDC-3_230–566; set-up: species or system C. elegans; settings: PBS, 2 h, same amount of CAR-1_184–268 and CGH-1_248–420 (50 μg)
Experimental: To investigate whether CAR-1_184–268 can affect CGH-1_248–420 binding to EDC-3_230–566, approximate 100 μg GST-tagged EDC-3_230–566 was incubated with GST resin, followed by three times of wash in PBS. The resin was then incubated with 50 μg CGH-1_248–420 in the absence or presence of the same amount of CAR-1_184–268 for 2 h, followed by five times of PBS wash, and captured proteins were finally analyzed as described above.
To investigate whether C. elegans PATR-1 peptide will affect the CGH-1 binding to GST-tagged EDC-3_230–566 protein, approximate 100 μg GST-tagged EDC-3_230–566 was incubated with GST resin, followed by three times of wash in PBS. The resin was then incubated with 50 μg CGH-1_248–420 without PATR-1 peptide (0 μM) or with varied concentration of PATR-1 peptide (12.5, 25, or 50 μM) for 2 h, and was washed five times in PBS. The captured proteins in resin were finally heated and analyzed using 12% SDS-PAGE.

CGH-1_248-420^WT = target: T1, CGH-1_248-420^WT (Caenorhabditis elegans, UniProt Q95YF3); test: ITC binding to CGH-1_248–420 WT; set-up: species or system C. elegans; settings: ITC, 20 °C, pH 7.5, 150 mM NaCl; CGH-1_248–420 WT
T1 construct: the cDNA fragments encoding CGH-1 RecA2 (residues 248–420); made in house; host or cells: E. coli Gold (DE3)
T1 sequence (Q95YF3 248-420): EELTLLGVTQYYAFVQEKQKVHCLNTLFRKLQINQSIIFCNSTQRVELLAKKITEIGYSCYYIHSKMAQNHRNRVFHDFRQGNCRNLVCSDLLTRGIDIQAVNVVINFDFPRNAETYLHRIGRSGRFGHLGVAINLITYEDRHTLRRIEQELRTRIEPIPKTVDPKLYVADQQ
Experimental: Expression plasmids regarding CGH-1 and CAR-1 were constructed as previously described. In brief, the cDNA fragments encoding CGH-1 RecA2 (residues 248–420), CAR-1 FDF-TFG (residues 184–268) were amplified by PCR from C. elegans genome library and cloned into the NdeI and XhoI site of a modified pET-28a (Novagen) vector (p28a), in which a thrombin protease cleavage site was removed.
CGH-1 protein expression and purification were performed described as in our most recent paper. In brief, proteins were expressed in E. coli Gold (DE3) strain (Novagen). […] Cells were resuspended in Buffer A (20 mM Tris–HCl, pH 7.5, 1 M NaCl), and then lysed using high pressure at 4 °C. Proteins were initially purified by Ni-chelating resin (Qiagen), and further purified by size exclusion chromatography (SEC) on a Superdex 75 column (GE healthcare) in Buffer A. The purified proteins were dialyzed into Buffer B (20 mM Tris–HCl, pH 7.5, 150 mM NaCl).
A peptide containing the C. elegans EDC-3 FDF fragment (residues 235–271) and PATR-1 fragment (residues 30–67) were synthesized from GL Biochem (Shanghai, China) Co., Ltd, respectively. Stock solutions of peptide were prepared in Buffer B described above, and were adjusted to pH 7.5 ± 0.02 for subsequent experiments.
ITC assays were performed as previously described. In brief, it was carried out on a MicroCal PEAQ-ITC (Malvern) at 20 °C with the following settings: reference power, 5 μcal/s; initial delay, 60 s; stir speed, 750 rpm; spacing time, 120 s. Proteins (or its mutants) and peptides were adjusted to 0.05 mM and 0.5 mM, respectively. Experiments were initialed by injection of 1 μl each of peptide into the sample cell (200 μl) filled with protein (or its mutants) solution, followed by 18 injections of 2 μl. The ITC data were fitted with a one-binding-site model using the Origin analysis software.

CGH-1_248–420 = test: GST-pulldown of CGH-1_248–420 WT; format: binding, C. elegans; settings: PBS, ~100 μg GST protein, ~50 μg CGH-1, 2 h, 12% SDS-PAGE
Experimental: (§1) The cDNA encoding a fragment of C. elegans EDC-3 (residues 230–566) plus a C-terminal His6 tag was synthesized by Sangon Biotech (Shanghai, China) Co., Ltd. The DNA fragment was then cloned into a pGEX-4T-1 expression vector using restriction enzymes BamHI and XhoI, and finally confirmed by DNA sequencing.
(§2) To test if GST-tagged EDC-3 can pulldown CGH-1 protein, about 100 μg protein, GST alone or GST-EDC-3_230–566, was incubated with GST resin (GE Healthcare) in PBS for 1 h. The resin was then washed three times with the same buffer. Subsequently, the resin was incubated with ~ 50 μg recombinant CGH-1_248–420 protein or its 4A mutant in the same buffer for 2 h. The resin was then washed five times using the same buffer. The captured proteins in resin were finally heated and analyzed using 12% SDS-PAGE.

[3] = tested on: 4A mutant of CGH-1_248–420; test: GST-pulldown of CGH-1_248–420 4A mutant; format: binding, C. elegans; settings: PBS, ~100 μg GST protein, ~50 μg CGH-1 4A, 2 h, 12% SDS-PAGE
Experimental: as §1, §2

CGH-1_248-420^F355A = CGH-1_248-420^F355A (Caenorhabditis elegans, UniProt Q95YF3, F355A); set-up: the cDNA fragments encoding CGH-1 RecA2 (residues 248–420); made in house; host or cells: E. coli Gold (DE3); settings: ITC, CGH-1 F355A vs WT; cited from earlier work
Excerpt: We recently identified a highly conserved FDF (Phe-Asp-Phe) motif between beta-strand 12 and alpha-helix 13 in CGH-1 RecA2 domain but the function is currently unclear (Fig. 1B)[17]. Mechanistically, Phe355 in CGH-1 may mediate hydrophobic interaction with Thr266 in the TFG motif of CAR-1 and a mutation of Phe355 to Ala (F355A) in CGH-1 decreased the binding affinity by a factor of approximate 5 as measured by ITC assay. Since PATR-1N-terminus has also a TFG motif, we hypothesize that PATR-1 may also interact with CGH-1 via similar binding mechanism (Supplementary Fig. S3B and C). Striking ...

human HA-tagged DDX6 = settings: Co-immunoprecipitation, YFP-tagged PATL1 mutants; cited from earlier work

CGH-1_248-420^F355A, sequence (Q95YF3 248-420 F355A): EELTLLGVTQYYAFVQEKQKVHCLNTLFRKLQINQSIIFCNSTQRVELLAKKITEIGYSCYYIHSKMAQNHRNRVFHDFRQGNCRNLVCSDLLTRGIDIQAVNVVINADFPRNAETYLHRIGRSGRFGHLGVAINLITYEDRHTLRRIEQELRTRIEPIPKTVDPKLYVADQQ

CGH-1 248-420 (from UniProt Q95YF3)
Kd [1]: 43 µM

B1: CAR-1_184–268: recombinant CAR-1 FDF-TFG (residues 184–268) (protein)
chain: LKFESDFDFEKANEKFQEVLVDNLEKLNIEDKAEPEVEEKKDAAFYDKKTSFFDNISCESLEKAEGKTGRPDWKKERETNQETFG
modifications: left off: His tag (from the modified vector pET-28a), end not stated, state not stated
effect on binding of CGH-1_248–420 to EDC-3_230–566 [2]: little or no effect
− TΔS (CGH-1_248-420^WT): 19.6 kcal/mol

B2: GST-EDC-3_230–566: GST-tagged fragment of C. elegans EDC-3 (residues 230–566) plus a C-terminal His6 tag (protein)
chain: RNKNDLADPIDFDLDSDFDFAENLKLFEKDENDDQYYETVEKFKCSQNFAHYENIIDDENRVTSWTNLKARSELVKTGTTPQTSEKNNFRVTAVSFEKSIIGDPIPAISLNEKKEFLNECRVSLGEAVYDTIVADRIFQWVSEVQNSYGDAHGTVVLLASSANSVRSIRRLLTHFDKRRYNCHLFGKYPGEIFDHVNVVTDVKMLPREVPIICILSPVVNDDVECWLRAQSNGASSHYVCIENVPSVLEPSRCHLLQFGCATNGLRHAERKVQTINRGGITFEHLCQGKMHEETSSILVDSAIADLGSPSNWFDNTSSKFISTAFSTTFLVRLSQSN
modifications: left off: GST, end not stated, kept | His6, C-terminal, state not stated
notes: GST-tagged fragment of C. elegans EDC-3 (residues 230–566) plus a C-terminal His6 tag
interaction with CGH-1_248–420 (CGH-1_248–420): can interact with CGH-1_248–420; also recorded: binds to CGH-1 RecA2 domain
amount of CGH-1 4A bound compared with wild-type [3]: less amount

B3: CAR-1: CAR-1, construct of ref 17; TFG motif interacts with Phe355 of CGH-1 (protein, UniProt Q9XW17 1-340, looked up)
Protein LSM14 homolog car-1: MSNQTPYIGSKISLISKLDIRYEGILYTVDTNDSTIALAKVRSFGTEKRPTANPVAARDDVYEYIIFKASDIKDLIVCDTPKMANIGGGLPYDPAIISVSSRSAPASDGAPAASAGSSRAGTPSRNSPLGQIIQNQRPGRGGYQQNFQANRGYNNYRGGFAGGYNNQRGHNNYGVPRVNHREKLKFESDFDFEKANEKFQEVLVDNLEKLNIEDKAEPEVEEKKDAAFYDKKTSFFDNISCESLEKAEGKTGRPDWKKERETNQETFGHNAVRSLNYRRGFGGRGRGGNRGYGGYNNGYQHQHQHRGGYNGGYRQNNGGYRRGGYAPRDNQGNTAAAAEQ
decrease of binding affinity, factor vs WT (CGH-1_248-420^F355A): ~5

B4: YFP-tagged PATL1 W46D: substitution of Trp46 to Asp in the YFP-tagged PATL1 (protein, UniProt Q86TB9 1-770, looked up, variant W46D)
Protein PAT1 homolog 1: MFRYESLEDCPLDEDEDAFQGLGEEDEEIDQFNDDTFGSGAVDDDDQEAHERLAELEEKLPVAVNEQTGNGERDEMDLLGDHEENLAERLSKMVIENELEDPAIMRAVQTRPVLQPQPGSLNSSIWDGSEVLRRIRGPLLAQEMPTVSVLEYALPQRPPQGPEDDRDLSERALPRRSTSPIIGSPPVRAVPIGTPPKQMAVPSFTQQILCPKPVHVRPPMPPRYPAPYGERMSPNQLCSVPNSSLLGHPFPPSVPPVLSPLQRAQLLGGAQLQPGRMSPSQFARVPGFVGSPLAAMNPKLLQGRVGQMLPPAPGFRAFFSAPPSATPPPQQHPPGPGPHLQNLRSQAPMFRPDTTHLHPQHRRLLHQRQQQNRSQHRNLNGAGDRGSHRSSHQDHLRKDPYANLMLQREKDWVSKIQMMQLQSTDPYLDDFYYQNYFEKLEKLSAAEEIQGDGPKKERTKLITPQVAKLEHAYKPVQFEGSLGKLTVSSVNNPRKMIDAVVTSRSEDDETKEKQVRDKRRKTLVIIEKTYSLLLDVEDYERRYLLSLEEERPALMDDRKHKICSMYDNLRGKLPGQERPSDDHFVQIMCIRKGKRMVARILPFLSTEQAADILMTTARNLPFLIKKDAQDEVLPCLLSPFSLLLYHLPSVSITSLLRQLMNLPQSAATPALSNPHLTAVLQNKFGLSLLLILLSRGEDLQSSDPATESTQNNQWTEVMFMATRELLRIPQAALAKPISIPTNLVSLFSRYVDRQKLNLLETKLQLVQGIR
modifications: YFP tag
interaction with DDX6 (human HA-tagged DDX6): impaired the interaction
